Reference: US20240053325A1, “NOVEL SCREENING PLATFORM TO IDENTIFY IMMUNE MODULATORY AGENTS” (PRESIDENT AND FELLOWS OF HARVARD COLLEGE, priority 2020, published 2024)

What was measured:
[1] = molecular target: IL-17RA/RB reporter (IL-17RA-tTA and IL-17RB-TEV co-expressed in reporter cells) (Mus musculus); assay: cell-based or functional assay
IL-17RA/RC [2] = molecular target: T1, IL-17RA/RC (Mus musculus, UniProt Q60943+Q8K4C2); assay: IL-17RA/RC reporter assay (GFP reporter cells); format: cell-based; details: reporter cells incubated with different amounts for 24 hours
T1 construct: expressed in transfected cells

IL-17RA/RC [3] = molecular target: T2, IL-17RA/RC (Mus musculus, UniProt Q60943+Q8K4C2, F156E); assay: IL-17RA/RC reporter assay (GFP reporter cells); format: cell-based; details: 24 h stimulation, IL-17A-F 100 ng/ml; for increase of percentage of GFP+ cells / GFP expression (reporter response): TNFa 5 ng/ml
T2 construct: expressed in transfected cells

[4] = molecular target: IL-17RA/RC reporter (IL-17RA-tTA and IL-17RC-TEV co-expressed in reporter cells) (Mus musculus); assay: cell-based or functional assay
IL-17RA/RB = molecular target: T3, IL-17RA/RB (Mus musculus, UniProt Q60943+Q9JIP3); assay: IL-17RA/RB reporter assay (GFP reporter cells); format: cell-based; details: 24 h stimulation, IL-17A-F 100 ng/ml; for increase of percentage of GFP+ cells / GFP expression (reporter response): TNFa 5 ng/ml
T3 construct: expressed in transfected cells
Protocol: Doxycycline was used as a negative regulator of the GFP reporter. IL-17A-F: 100 ng/ml, TNFa: 5 ng/ml, doxycycline: 1 μg/ml.
Using a similar approach, the inventors have recently also successfully generated the IL-17RA/IL-17RB reporter line (FIG. 4). […] Since IL-17E plays a role in allergy and asthma, small molecules modulators that will be identified using this platform may create a new IP opportunity.

TNFαR1 = molecular target: T4, TNFαR1 (Homo sapiens, UniProt P19438); assay: TNF-α reporter; format: cell-based; details: incubated for 24 hours with different amounts
T4 construct: expressed in transfected cells
Protocol: (§1) IL-10/IFN-γ/TNF-α reporters were incubated for 24 hours with different amounts of IL-10 (FIGS. 5A and 5B), IFN-γ (FIGS. 5C and 5D) or TNF-α (FIGS. 5E and 5F).
(§2) Furthermore, the systems and methods provided herein are applied to generate other cytokine/cytokine receptor reporter system (tTA fused onto one receptor subunit via a protease cleavage site, TEV fused to another receptor subunit, optimal linkers inserted between different proteins to ensure high signal-to-background ratio). The screening platform provided herein are used to identify immune modulatory agents including, but not limited to, small molecules and proteins that modulate cytokine signaling (FIGS. 5A-6F).

IL-10R = molecular target: T5, IL-10R (Mus musculus, UniProt Q61190+Q61727, C4S); assay: IL-10 reporter; format: cell-based; details: incubated for 24 hours with different amounts
T5 construct: expressed in transfected cells
Protocol: as §1, §2

IFNγR = molecular target: T6, IFNγR (Mus musculus, UniProt P15261+Q63953); assay: IFN-γ reporter; format: cell-based; details: incubated for 24 hours with different amounts
T6 construct: expressed in transfected cells
Protocol: as §1, §2

IL-17E (ligand)
percentage of GFP^+ cells (24 h stimulation, 100 ng/ml) [1]: 80%

IL-17A: IL-17 family cytokine; ligand of the IL-17RA/IL-17RC heterodimer
dose-dependent activation of the GFP reporter (IL-17RA/RC [2]): activate the GFP reporter system in a dose-dependent manner
dose-dependent activation of the GFP reporter (IL-17RA/RC [2]; listed as IL-17a): activated in a dose-dependent manner
increase of percentage of GFP+ cells / GFP expression (reporter response) (IL-17RA/RC [3]): responds highly selectively
percentage of GFP+ cells (IL-17RA/RC [3]; increased from 1%): 60%

IL-17A (ligand)
percentage of GFP^+ cells (24 h stimulation, 100 ng/ml) [4]: 60%

IL-17F: IL-17 family cytokine
dose-dependent activation of the GFP reporter (IL-17RA/RC [2]): activate the GFP reporter system in a dose-dependent manner
dose-dependent activation of the GFP reporter (IL-17RA/RC [2]; listed as IL-17f): to a lesser degree

TNFa
increase of percentage of GFP+ cells / GFP expression (reporter response) (IL-17RA/RC [3]): failed to increase GFP expression
increase of percentage of GFP+ cells / GFP expression (reporter response) (IL-17RA/RB): failed to increase GFP expression
dose dependent activation of reporter (TNFαR1): dose dependent activation

IL-10: cytokine, used to activate the IL-10 reporter
dose dependent activation of reporter (IL-10R): dose dependent activation

B1: IFN-γ: dimerized soluble cytokine (interferon) that activates interferon gamma receptors (protein, listed as Homo sapiens)
chain: MKYTSYILAFQLCIVLGSLGCYCQDPYVKEAENLKKYFNAGHSDVADNGTLFLGILKNWKEESDRKIMQSQIVSFYFKLFKNFKDDQSIQKSVETIKEDMNVKFFNSNKKKRDDFEKLTNYSVTDLNVQRKAIHELIQVMAELSPAAKTGKRKRSQMLFRGRRASQ
dose dependent activation of reporter (IFNγR): dose dependent activation

B2: IL-17C: IL-17 family cytokine (protein, UniProt Q9P0M4 19-197, looked up)
Interleukin-17C: HHDPSLRGHPHSHGTPHCYSAEELPLGQAPPHLLARGAKWGQALPVALVSSLEAASHRGRHERPSATTQCPVLRPEEVLEADTHQRSISPWRYRVDTDEDRYPQKLAFAECLCRGCIDARTGRETAALNSVRLLQSLLVLRRRPCSRDGSGLPTPGAFAFHTEFIHVPVGCTCVLPRSV
dose-dependent activation of the GFP reporter (IL-17RA/RC [2]): not

B3: IL-17E: IL-17 family cytokine; the natural ligand of IL-17RA/RB (protein, UniProt Q9H293 33-177, looked up)
Interleukin-25: YSHWPSCCPSKGQDTSEELLRWSTVPVPPLEPARPNRHPESCRASEDGPLNSRAISPWRYELDRDLNRLPQDLYHARCLCPHCVSLQTGSHMDPRGNSELLYHNQTVFYRRPCHGEKGTHKGYCLERRLYRVSLACVCVRPRVMG
increase of percentage of GFP+ cells / GFP expression (reporter response) (IL-17RA/RB): responds highly
percentage of GFP+ cells (IL-17RA/RB; increased from 1%): 80%
